The source of these data is patent US9228009B2, “Multi-hierarchical self-assembly of a collagen mimetic peptide” (WILLIAM MARSH RICE UNIVERSITY, priority 2011, dated 2016).

The data set has as its system collagenase type IV. Kind of data set: Collagenase degradation study of hydrogels. It counts as in vitro ADME. The following applies: for hydrogel degradation state: w/ collagenase, 3.0% by weight gel. The method, then:
As a simple functional test of the collagen hydrogel mimetic, we compared its ability to be broken down by collagenase (type IV, Invitrogen) the primary component of which is MMP2, a protease known to specifically cleave between the X and Gly residues of an X-Y-Gly repeat found in a triple helix.^42 (Pro-Lys-Gly)4(Pro-Hyp-Gly)4(Asp-Hyp-Gly)4 hydrogels were prepared at a concentration of 2.0% by weight in phosphate buffer and treated with either collagenase in HBSS (Hank's Balanced Salt Solution) or HBSS alone. The samples were allowed to incubate at room temperature (approximately 20° C.), 30° C. and 37° C. Hydrogels of rat-tail collagen were prepared in the same fashion with and without collagenase.
Using the previously described gelation procedure, gels of (Pro-Lys-Gly)4(Pro-Hyp-Gly)4(Asp-Hyp-Gly)4 were prepared at a concentration of 2.0% by weight in 10 mM phosphate buffer. Directly after annealing, 100 μl of solution was pipetted into two wells of a 96-well cell culture plate and allowed to incubate at room temperature overnight. A 0.3% by weight collagenase type IV solution was prepared by dissolving 15.0 mg of non-sterile lyophilized enzyme into 5 ml of Hank's Balanced Salt Solution (HBSS). The solution was then filter sterilized using a 0.2 μm filter attached to a syringe. Enzyme and buffer were from Invitrogen (Carlsbad, Calif.). After gelation was complete, 150 μl of collagenase was added on top of one well and 150 μL of HBSS was added on the other serving as a control. Three plates were prepared and incubated at room temperature (about 20° C.), 30° C. and 37° C. Each condition was observed and imaged at 0, 1, 4, 6, 12, 24 and 48 hours after addition of the collagenase or HBSS. Plates containing rat-tail collagen gels at a concentration of 3.0% by weight were prepared and analyzed in an identical manner. Table 1 and Table 2 below show collagenase mediated degradation of (Pro-Lys-Gly)4(Pro-Hyp-Gly)4(Asp-Hyp-Gly)4 and rat-tail collagen hydrogels, respectively. Samples were tested at room temperature (approximately 20° C., 30° C. and 37° C.) with and without collagenase. […] Control samples of (Pro-Lys-Gly)4(Pro-Hyp-Gly)4(Asp-Hyp-Gly)4 at room temperature and 30° C. were intact after 48 hours. However at 37° C. the hydrogels dissolved after 24 hours due to the proximity of this temperature to the triple helices melting temperature.

For the substance “Rat-tail Collagen: collagen type I harvested from rat-tail tendon; hydrogels at 3.0% by weight used as comparator [reference compound]”, the “time after which hydrogel treated with collagenase was fully dissolved” value was determined as 4 h (30° C.), 1 h (37° C.) and 4 h (room temperature (approximately 20° C.)). The hydrogel degradation state entry (20° C., 0 h) is recorded as “intact”; the hydrogel degradation state entry (20° C., 1 h) is on record as “intact”; the hydrogel degradation state result (20° C., 4 h) was “dissolved”; the hydrogel degradation state result (20° C., 6 h) is reported as “dissolved”; the hydrogel degradation state entry (20° C., 12 h) is listed as “dissolved”; the hydrogel degradation state entry (20° C., 24 h) is given as “dissolved”. The hydrogel degradation state result reads like this: (20° C., 48 h) “dissolved”; (30° C., 0 h) “intact”; (30° C., 1 h) “intact”; (30° C., 4 h) “dissolved”; (30° C., 6 h) “dissolved”; (30° C., 12 h) “dissolved”. Further, the hydrogel degradation state entry is reported as “dissolved” (30° C., 24 h); “dissolved” (30° C., 48 h); “intact” (37° C., 0 h); “dissolved” (37° C., 1 h); “dissolved” (37° C., 4 h); “dissolved” (37° C., 6 h). Further, the hydrogel degradation state entry was “dissolved” (37° C., 12 h); “dissolved” (37° C., 24 h); “dissolved” (37° C., 48 h).
